Consider one molecule from publication PMC7041945, “Misfolded proteins bind and activate death receptor 5 to trigger apoptosis during unresolved endoplasmic reticulum stress” (eLife, 2020).

The test system of assay [1] is CHOP, BiP, and DR5 mRNA in HCT116 cells. Nature of the assay: qPCR of UPR target transcripts (CHOP, BiP, DR5). The settings on record: HCT116, transfected 24 hr. In kind it is cell-based, Homo sapiens. The method, then: Cells were grown in 6-well plates and harvested with 0.5 ml of TRIzol reagent (Life Technologies) per manufacturer’s protocol to extract RNA. For cDNA synthesis, 500 ng of total RNA was reverse transcribed with 2 μl of the SuperScript VILO master mix (Life Technologies # 11755050) in a total reaction volume of 10 μl following the manufacturer’s protocol for reaction temperature and duration. The reverse transcription product was diluted to 200 μl with 10 mM Tris-HCl pH 8.2 and used at 1:100 dilution for subsequent RT-PCR reactions.
PCR samples were prepared as described by manufacturer’s protocols from iQ SYBR Green Supermix (BioRad #17088800).
For each experiment, qRT-PCR reactions were set up in triplicate and run using a CFX96 Real Time System (Bio-Rad). Quantitation cycles were determined with CFX Manager 3.0 software (Bio-Rad) and then normalized to GAPDH as an internal control.
A general note: Quantitative PCR measures a nucleic acid by following its amplification.

Assay [2] deals with caspase 8 in HCT116 fractions. Briefly: Caspase 8 activity of subcellular (iodixanol gradient) fractions. In kind it is cell-based, Homo sapiens. The settings on record: cells expressing MPZ-GFP; first and second ERGIC-associated fractions. How it is done:
This subcellular fractionation protocol was adapted from [Xu et al. (2015)].
Cells transfected with MPZ-GFP were harvested from a 15 cm dish as described in the Size Exclusion Chromatography section above. The cell pellet was resuspended in 400 μl of homogenization buffer (10 mM triethanolamine-acetic acid, pH 7.4, 0.25 M sucrose, 1 mM sodium EDTA, protease inhibitor cocktail (Roche)) and lysed via mechanical shearing through a 25-gauge needle on a 1 ml syringe with 13 passes. (Note on protease inhibitor: 4x protease inhibitor was used to lyse samples used for Western blotting to minimize degradation of proteins, while 1x protease inhibitor was used in sample lysis for caspase glo 8 assay so that excess inhibitor would not interfere with cleavage of luminescent substrate.) Homogenized sample was then centrifuged at 2000xg for 15 min at 4°C to remove unlysed cells and the nuclear fraction. […]
Fractions from samples lysed with 4x protease inhibitor were subjected to TCA precipitation to concentrate protein content for immunoblotting. Fractions from samples lysed with 1x protease inhibitor were used for the caspase glo 8 assay (10 μl of each fraction + 10 μl of the caspase glo 8 reagent (Promega #PRG8200) incubated for 45 min at RT prior to measuring luminescence).

B1: MPZ-GFP: myelin protein zero with a C-terminal monomeric EGFP, expressed from plasmid (protein)
chain: IVVYTDREVHGAVGSRVTLHCSFWSSEWVSDDISFTWRYQPEGGRDAISIFHYAKGQPYIDEVGTFKERIQWVGDPRWKDGSIVIHNLDYSDNGTFTCDVKNPPDIVGKTSQVTLYVFEKVPTRYGVVLGAVIGGVLGVVLLLLLLFYVVRYCWLRRQAALQRRLSAMEKGKLHKPGKDASKRGRQTPVLYAMLDHSRSTKAVSEKKAKGLGESRKDKK
modifications: left off: monomeric EGFP, C-terminal, kept
notes: myelin protein zero with a C-terminal monomeric EGFP, expressed from plasmid
With B1, the “UPR target gene transcription” value in assay [1] was “dose-dependent upregulation of the UPR transcriptional target genes CHOP, BiP, and DR5”. For the same molecule, the “caspase 8 activity of ERGIC-associated fractions” value in assay [2] is reported as “harbored the majority of the caspase 8 activity in the cell lysate”.
